From patent publication US7960513B2, “Antibody against a human ADAM protease” (Monash University, priority 2004, dated 2011) come the findings set out here.

In assay [1] the target is T1, EphA3 (wild type, expressed in cells) (UniProt P29320 21-983, limits assumed).
T1 construct: whole, on cells; also called wt EphA3; w/t EphA3
T1 sequence (looked up): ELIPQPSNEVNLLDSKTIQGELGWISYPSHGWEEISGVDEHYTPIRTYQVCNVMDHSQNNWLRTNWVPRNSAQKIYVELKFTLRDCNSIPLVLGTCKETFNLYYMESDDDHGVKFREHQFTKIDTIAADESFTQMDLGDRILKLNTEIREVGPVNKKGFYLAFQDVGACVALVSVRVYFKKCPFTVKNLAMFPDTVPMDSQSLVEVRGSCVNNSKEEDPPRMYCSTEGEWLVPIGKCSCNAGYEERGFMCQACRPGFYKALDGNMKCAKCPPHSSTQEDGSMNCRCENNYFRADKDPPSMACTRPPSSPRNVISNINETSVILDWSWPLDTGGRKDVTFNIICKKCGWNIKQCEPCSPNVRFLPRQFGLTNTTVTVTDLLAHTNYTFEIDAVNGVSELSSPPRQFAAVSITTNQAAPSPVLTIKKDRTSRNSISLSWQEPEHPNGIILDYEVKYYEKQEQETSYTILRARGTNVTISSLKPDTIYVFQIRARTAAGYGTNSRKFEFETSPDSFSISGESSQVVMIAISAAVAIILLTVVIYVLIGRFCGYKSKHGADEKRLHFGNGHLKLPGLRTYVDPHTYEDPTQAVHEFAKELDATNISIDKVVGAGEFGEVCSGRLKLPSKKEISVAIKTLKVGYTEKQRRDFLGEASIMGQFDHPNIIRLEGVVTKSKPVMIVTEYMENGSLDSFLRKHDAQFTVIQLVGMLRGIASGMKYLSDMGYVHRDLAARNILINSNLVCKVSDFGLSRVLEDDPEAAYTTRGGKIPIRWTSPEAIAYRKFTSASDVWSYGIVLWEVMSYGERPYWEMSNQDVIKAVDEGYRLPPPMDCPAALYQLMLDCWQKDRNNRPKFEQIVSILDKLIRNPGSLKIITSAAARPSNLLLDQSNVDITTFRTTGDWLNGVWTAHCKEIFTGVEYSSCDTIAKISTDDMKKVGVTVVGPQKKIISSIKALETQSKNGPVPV
In words: anti-EphA3 immunoprecipitation, anti-ADAM10 Western blot. As for the experimental part: Cells were cultured in DME/10% FCS and transfected with Lipofectamine 2000 (Invitrogen), and in some experiments treated with the metalloprotease inhibitors 1,10-O-Phenanthroline (OPN, 4h, 1 mM; Mumm et al., 2000, Mol. Cell. 5 197-206) and TAPI1 (1h, 50 µM; Yan et al., 2002, J Cell Biol. 158 221-6). HEK293 cells were transfected with EphA3 (Wicks et al., 1992, Proc. Natl. Acad. Sci. USA 89 1611-1615) or ephrin-A5 (Winslow et al., 1995, Neuron 14 973-81; Lackmann et al., 1996, Proc. Natl. Acad. Sci. USA 93 2523-2527) in pEfBos vectors containing puromycin or gentamycin resistance genes, respectively and stable EphA3/HEK293 or ephrin-A5/HEK293 clones derived accordingly. Serum-starved cells were stimulated (10 min) with 1.5 ug/ml pre-clustered ephrinA5-Fc and harvested, as described previously. Immunoprecipitation was with anti-EphA3 mAb IIIA4 (Boyd et al., 1992, J Biol. Chem. 267 3262-3267. or anti-HA mAb 3F10 (Roche) conjugated to beads, and Western blotting was performed using anti-ADAM10 (Biogenesis, UK), anti-ephrinA5 (R&D Systems) and anti-ephA3 (Lackmann et al., 1997, supra) antibodies.
Initially, we investigated whether ADAM10 interacts with either EphA3 or ephrin-A5 on the cell surface and how these interactions are affected upon Eph/ephrin complex formation. […]
(In general: In western blotting, separated proteins are transferred to a membrane and probed.)

Another assay has as its system HEK293 cells. The assay is described as follows: Confocal imaging of co-cultured EphA3-diHcRed/ADAM10 and GFP-ephrin expressing cells. In kind it is cell-based, human. As to conditions: co-incubation with GFP-ephrin-A5 or GFP-ephrin-A2 cells for 40 min. As for the experimental part: (§1) FIG. 4. Mutation of acidic residues in the ADAM10 Cys-rich domain affects binding to EphA3/ephrin-A5 and cleavage of ephrin-A5. • A. In vitro binding of mutant ADAM10D+C to EphA3/ephrin-A5. ADAM10D+C[EEE-A] containing Alanine substitutions of Glu573, Glu578, Glu579 (lanes 1-4) or ADAM10D+C[RDD-A] (Ala substitutions of Arg525, Asp526, Asp527, lanes 5-8) were incubated alone (lanes 1, 5), or together with EphA3-Fc (lanes 2, 6), ephrin-A5-Fc (lanes 3, 7), or EphA3-Fc and ephrin-A5 (lanes 4, 8). Complexed proteins were extracted with Protein-A-Sepharose beads and analysed as in FIG. 2. • B. Binding of wild-type and mutant ADAM10ΔMP to EphA3 in cells. EphA3/293 cells were transfected with HA-ADAM10ΔMP or HA-ADAM10ΔMP [EEE-A]. Parental and transfected cells were treated for 10 min with or without pre-clustered ephrin-A5-Fc and lysed. Anti-HA and anti-EphA3 immunoprecipitates, and total cell lysates were analysed by Western blotting with indicated antibodies. • C. Ephrin-A5-Fc cleavage in cells expressing wt and 3A mutant ADAM10. EphA3/293 cells were transfected with full length, wild-type (wt) ADAM10, dominant-negative ADAM10ΔMP, or ADAM10 bearing alanine (3A) or 3 lysine (3K) substitutions of Glu573, 578, 579. Following exposure to clustered (+) or non-clustered ? ephrin-A5 Fc, cleaved ephrin was recovered and analysed by Western Blot as described in FIG. 1c. Parallel anti-HA blots of whole-cell lysates reveal the expression levels of ADAM10 constructs. • D. Model of ADAM protein modules and cleavage mechanism. Left, schematic representation of ADAM proteinases protein domain organization; right, schematic representation of the proposed interactions and positioning of ADAM10, EphA3, and Ephrin-A5 between interacting cells, leading to controlled ephrin-cleavage. • E. Ephrin cleavage from the cell surface is blocked by overexpression of 3A-mutant ADAM10. HEK293 cells were co-transfected with (red-fluorescent) EphA3-diHcRed and either wt ADAM10, ADAM10 bearing alanine (3A) substitutions at Glu573, Glu578, and Glu579, or dominant-negative ADAM10ΔMP. […]

Assay [2] relates to EphA3-expressing 293 cells. In words: Ephrin-A5-Fc cleavage in EphA3/293 cells overexpressing ADAM10 constructs (Western blot of recovered ephrin). In kind it is cell-based, human. As to conditions: overexpression of ADAM10 construct; clustered ephrin-A5-Fc. As for the experimental part:
as §1, with “1c.” for “1c. Parallel anti-HA blots of whole-cell lysates reveal the expression levels of ADAM10 constructs. • D. Model of ADAM protein modules and cleavage mechanism. Left, schematic representation of ADAM proteinases protein domain organization; right, schematic representation of the proposed interactions and positioning of ADAM10, EphA3, and Ephrin-A5 between interacting cells, leading to controlled ephrin-cleavage. • E. Ephrin cleavage from the cell surface is blocked by overexpression of 3A-mutant ADAM10. HEK293 cells were co-transfected with (red-fluorescent) EphA3-diHcRed and either wt ADAM10, ADAM10 bearing alanine (3A) substitutions at Glu573, Glu578, and Glu579, or dominant-negative ADAM10ΔMP.”

B1: endogenous ADAM10 (HEK293 and LiBr melanoma cells) (enzyme, human, UniProt O14672 214-748, looked up)
chain: TTSAEKNTCQLYIQTDHLFFKYYGTREAVIAQISSHVKAIDTIYQTTDFSGIRNISFMVKRIRINTTADEKDPTNPFRFPNIGVEKFLELNSEQNHDDYCLAYVFTDRDFDDGVLGLAWVGAPSGSSGGICEKSKLYSDGKKKSLNTGIITVQNYGSHVPPKVSHITFAHEVGHNFGSPHDSGTECTPGESKNLGQKENGNYIMYARATSGDKLNNNKFSLCSIRNISQVLEKKRNNCFVESGQPICGNGMVEQGEECDCGYSDQCKDECCFDANQPEGRKCKLKPGKQCSPSQGPCCTAQCAFKSKSEKCRDDSDCAREGICNGFTALCPASDPKPNFTDCNRHTQVCINGQCAGSICEKYGLEECTCASSDGKDDKELCHVCCMKKMDPSTCASTGSVQWSRHFSGRTITLQPGSPCNDFRGYCDVFMRCRLVDADGPLARLKKAIFSPELYENIAEWIVAHWWAVLLMGIALIMLMAGFIKICSVHTPSSNPKLPPPKPLPGTLKRRRPPQPIQQPQRQRPRESYQMGHMRR
notes: whole, on cells; Both pro and mature forms are marked on the blot; also called pro (unprocessed) and mature (processed) forms
Turning to B1, the binding result in assay [1] is on record as “binds”.

B2: wt-ADAM10: full length, wild-type ADAM10 overexpressed in cells (protein)
chain: TTVAEKNTCQLYIQTDHLFFKYYGTREAVIAQISSHVKAIDTIYQTTDFSGIRNISFMVKRIRINTTADEKDPTNPFRFPNIGVEKFLELNSEQNHDDYCLAYVFTDRDFDDGVLGLAWVGAPSGSSGGICEKSKLYSDGKKKSLNTGIITVQNYGSHVPPKVSHITFAHEVGHNFGSPHDSGTECTPGESKNLGQKENGNYIMYARATSGDKLNNNKFSLCSIRNISQVLEKKRNNCFVESGQPICGNGMVEQGEECDCGYSDQCKDECCYDANQPEGKKCKLKPGKQCSPSQGPCCTAHCAFKSKTEKCRDDSDCAKEGICNGITALCPASDPKPNFTDCNRHTQVCINGQCAGSICEKHGLEECTCASSDGKDDKELCHVCCMKKMEPSTCASTGSVQWNKYFLGRTITLQPGSPCNDFRGYCDVFMRCRLVDADGPLARLKKAIFSPELYENIAEWIVAYWWAVLLMGIALIMLMAGFIKICSVHTPSSNPKLPPPKPLPGTLKRRRPPQPIQQPQRQRPRESYQMGHMRR
modifications: left off: small tags and cut ends
notes: full length, wild-type ADAM10 overexpressed in cells
For B2, in the assay with HEK293 cells, the “ephrin cleavage from the cell surface and internalisation” value is “readily noticeable”. Moreover, in assay [2], the ephrin-A5 cleavage entry is “did not increase ephrin cleavage above control levels”.
